Laboratory results: patent US20260125478A1 (VIELA BIO, published 2026)
Substitutions are numbered along the chain they refer to.

B1: CamIV3 (antibody, V domains shown)
VH: QVQLVQSGAEVKKPGASVKVSCKASGYTFTNYGMNWVRQAPGQRLEWMGWLNTYTGESIYPDDFKGRVTITRDTSASTAYMELSSLRSEDTAVYYCARGDYGYDDPLDYWGQGTLVTVSS
VL: DIVMTQSPLSLPVTPGEPASISCRSSKSLLHTLGNTYLHWFLQKPGQSPQLLIYRMSVLASGVPDRFSGSGSGTDFTLKISRVEAEDVGVYYCMQHLEYPLTFGQGTKLEIK
B2: 32LO0356 (antibody, V domains shown)
VH: B1 VH with I59Y
VL: B1 VL with L33N, G34F
B3: 32LO0351 (antibody, V domains shown)
VH: B1 VH with I59Y
VL: B1 VL with L33Y
B4: 32LO0350 (antibody, human IgG1, V domains shown)
VH: B1 VH with I59W
VL: B1 VL with L33N, G34R
notes: also called optimized IV.3 clone 32LO0350
B5: 32LO0355 (antibody, human IgG1, V domains shown)
VH: B1 VH with I59W
VL: B1 VL with L33N, G34K
notes: also called optimized IV.3 clone 32LO0355
B6: 32LO0354 (antibody, human IgG1, V domains shown)
VH: B1 VH with I59Y
VL: B1 VL with L33N, G34R
notes: also called optimized IV.3 clone 32LO0354

Legend:
[1] = target: T1, human FcγRIIA 131H on blood cells of 131H/H donors (human, UniProt P12318 34-317); assay: cell-based or functional assay
T1 sequence (looked up): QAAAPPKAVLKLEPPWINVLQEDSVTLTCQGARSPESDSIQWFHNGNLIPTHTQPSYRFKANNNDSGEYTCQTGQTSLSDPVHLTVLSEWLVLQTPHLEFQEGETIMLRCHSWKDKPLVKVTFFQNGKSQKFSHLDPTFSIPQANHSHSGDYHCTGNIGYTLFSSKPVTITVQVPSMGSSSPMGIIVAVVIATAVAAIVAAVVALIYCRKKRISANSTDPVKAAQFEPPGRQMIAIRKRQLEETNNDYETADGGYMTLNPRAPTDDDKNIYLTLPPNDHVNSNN

[2] = target: T2, human FcγRIIA 131R on blood cells of 131R/R donors (human, UniProt P12318 34-317); assay: cell-based or functional assay
T2 sequence: T1 sequence (looked up) with H134R

[3] = target: cynomolgus monkey FcγRIIA on blood cells (cynomolgus monkey); assay: cell-based or functional assay
[4] = target: T3, recombinant human FcγRI (ELISA coat, generated at MedImmune) (human, UniProt P12314 16-292, limits assumed); assay: ELISA on plate-coated FcγRI (2 µg/ml), detection with goat anti-human Fc-HRP
T3 construct: also called CD64
Protocol: (§1) Plates were washed five times with 200 μl of wash buffer (PBS containing 0.1% Tween 20), blocked with blocking buffer containing 5% milk in PBS for 1 hour at room temperature, and washed five additional times with wash buffer. Three-fold serial dilutions of the test antibody or control antibody (R347-Tm) were added to wells in duplicate. Plates were incubated for 2 hours at room temperature, and washed five times with wash buffer. Binding of the antibodies to the FcγRs was detected by adding 50 μl of goat anti-human Fc-HRP (Jackson ImmunoResearch Laboratories, PA) to the wells and incubating for 1 hour at room temperature, washing 10 times, and adding 50 μl TMB substrate (Pierce Biotechnology, MA). The color reaction was stopped with 50 μl 0.2M […] and the absorbance was measured using a spectrophotometer (Molecular Devices, CA) at […].

[5] = target: T4, recombinant FcγRIIB (ELISA coat, generated at MedImmune) (UniProt P31994 43-217, limits assumed); assay: ELISA on plate-coated FcγRIIB (2 µg/ml), detection with goat anti-human Fc-HRP
T4 construct: also called CD32B
T4 sequence (looked up): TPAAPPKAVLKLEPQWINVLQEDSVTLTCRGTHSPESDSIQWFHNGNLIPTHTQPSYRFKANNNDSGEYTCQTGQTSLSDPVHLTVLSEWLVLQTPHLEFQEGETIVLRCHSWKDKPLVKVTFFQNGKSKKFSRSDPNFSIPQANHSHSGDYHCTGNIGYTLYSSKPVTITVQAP
Protocol: as §1

[6] = target: T5, recombinant human FcγRIIIA-158F allotype (ELISA coat, generated at MedImmune) (human, UniProt P08637 17-208, limits assumed); assay: ELISA on plate-coated FcγRIIIA-158F (2 µg/ml), detection with goat anti-human Fc-HRP
T5 construct: also called FcγRIII-158F allotype; CD16A 158F
Protocol: as §1

[7] = target: T6, recombinant human FcγRIIIA-158V allotype (ELISA coat, generated at MedImmune) (human, UniProt P08637 17-208, limits assumed); assay: ELISA on plate-coated FcγRIIIA-158V (2 µg/ml), detection with goat anti-human Fc-HRP
T6 construct: also called FcγRIII-158V allotype; CD16A 158V
Protocol: as §1

[8] = target: T7, recombinant FcγRIIA-131H/H allotype (ELISA coat, generated at MedImmune) (human, UniProt P12318 34-217, limits assumed); assay: ELISA on plate-coated FcγRIIA-131H/H (2 µg/ml), detection with goat anti-human Fc-HRP
T7 construct: also called human FcγRIIA; CD32A
T7 sequence (looked up): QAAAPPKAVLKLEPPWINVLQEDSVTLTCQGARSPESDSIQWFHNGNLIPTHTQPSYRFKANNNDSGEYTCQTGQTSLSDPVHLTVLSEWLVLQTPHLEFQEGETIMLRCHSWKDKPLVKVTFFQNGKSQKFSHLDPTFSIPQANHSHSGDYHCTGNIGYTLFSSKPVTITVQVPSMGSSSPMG
Protocol: as §1

[9] = target: T8, Human CD32A 131R extracellular domain, 6xHis_Flag tagged (human, UniProt P12318 34-217); assay: HTRF epitope competition: sample IgG titrated against binding of mouse IV.3 IgG to human CD32a 131R
T8 construct: also called Hu CD32A_131Arg; human CD32A_131 Arg
T8 chain: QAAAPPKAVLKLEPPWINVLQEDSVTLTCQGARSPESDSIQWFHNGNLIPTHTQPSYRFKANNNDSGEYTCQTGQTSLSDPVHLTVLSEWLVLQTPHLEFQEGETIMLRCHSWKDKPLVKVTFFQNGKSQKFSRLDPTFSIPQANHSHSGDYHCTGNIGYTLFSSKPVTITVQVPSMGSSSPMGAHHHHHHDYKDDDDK

T3 sequence (P12314 16-292 limits assumed): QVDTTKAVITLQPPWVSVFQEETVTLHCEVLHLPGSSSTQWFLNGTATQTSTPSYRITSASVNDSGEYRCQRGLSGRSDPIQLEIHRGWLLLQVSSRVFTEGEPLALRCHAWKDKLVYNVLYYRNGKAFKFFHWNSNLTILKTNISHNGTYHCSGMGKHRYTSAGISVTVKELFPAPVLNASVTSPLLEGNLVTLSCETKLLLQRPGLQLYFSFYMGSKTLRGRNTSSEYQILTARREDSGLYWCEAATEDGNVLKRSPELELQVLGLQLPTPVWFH
T6 sequence (P08637 17-208 F176V limits assumed): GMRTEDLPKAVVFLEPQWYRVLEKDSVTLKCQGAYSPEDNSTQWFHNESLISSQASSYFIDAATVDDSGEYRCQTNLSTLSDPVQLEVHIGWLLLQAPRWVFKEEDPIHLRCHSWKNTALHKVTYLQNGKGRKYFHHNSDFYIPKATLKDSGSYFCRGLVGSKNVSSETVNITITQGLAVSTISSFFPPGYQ
T5 sequence (P08637 17-208 limits assumed): as the sequence (P08637 17-208 F176V limits assumed) above, with V160F counted along it

Binder	IC50 of the loss of surface FcγRIIA (M.F.I of IV.3-Alexa 647) on monocytes, whole blood, 2 h at 37 °C [1] [nM]	IC50 of the loss of surface FcγRIIA (M.F.I of IV.3-Alexa 647) on monocytes, whole blood, 2 h at 37 °C [2] [nM]	IC50 of the loss of surface FcγRIIA (M.F.I of IV.3-Alexa 647) on cynomolgus monocytes, whole blood, 2 h at 37 °C [3] [nM]	binding result [4]	binding result [5]	binding result [6]	binding result [7]	EC50 (read off the curve) [8] [ng/mL]	binding result [9]
B1	0.241	0.307	10.5	–	–	–	–	–	–
B2	0.044	0.0431	3.78	–	–	–	–	–	–
B3	0.0524	0.0559	16.4	–	–	–	–	–	–
B4	0.0692	0.0537	1.2	no binding (tested: about 15000 ng/ml)	no binding (tested: about 15000 ng/ml)	no binding (tested: about 15000 ng/ml)	no binding (tested: about 15000 ng/ml)	~5	binds
B5	0.0915	0.0644	1.01	no binding (tested: about 15000 ng/ml)	no binding (tested: about 15000 ng/ml)	no binding (tested: about 15000 ng/ml)	no binding (tested: about 15000 ng/ml)	~5	binds
B6	0.0417	0.039	5.14	no binding (tested: about 15000 ng/ml)	no binding (tested: about 15000 ng/ml)	no binding (tested: about 15000 ng/ml)	no binding (tested: about 15000 ng/ml)	~5	binds
